US20050032695A1
Read-outs that look alike come from different tables or passages of the source.

Key:
Assay in all cases: cell-based or functional assay
[1] = biological target: adenylyl cyclase (AC) in rat spinal cord lysates/membranes (rat)
[2] = biological target: adenylyl cyclase (AC) in rat dorsal root ganglia (DRG) lysates (rat)
[3] = biological target: adenylyl cyclase (AC) in rat spinal cord lysates/membranes (rat); remark: listed apart in the source

PAM (Protein Associated with Myc), full length, purified from HeLa cells (from UniProt O75592 1-4678)
inhibition of Gαs-stimulated AC activity, spinal cord lysates of animals treated for 1 hour with formalin, 30 nM PAM [1]: 25%
inhibition of Gαs-stimulated AC activity, spinal cord lysates of control animals, 30 nM PAM [1]: 49%
inhibition of Gαs-stimulated AC activity, spinal cord lysates of rats 96 hours after zymosan injection, 30 nM PAM [1]: 70%
inhibition of Gαs-stimulated AC activity, spinal cord preparations of zymosan-treated animals [1]: 75%
inhibition of Gαs-stimulated AC activity, DRG lysates, 30 nM PAM [2]: 32%
inhibition of Gαs-stimulated AC activity, spinal cord lysates of control animals, 30 nM PAM [3]: 50%
